Assay results from US20250340613A1 (JOINT STOCK COMPANY BIOCAD, published 2025).

Legend:
[1] = target: T1, hCD38-Avi, ADP-ribosyl cyclase/cyclic ADP-ribose hydrolase 1 (Homo sapiens) aa 43-300 (Homo sapiens, UniProt P28907 43-300); experiment: BLI Octet RED 384; antibody on ProA sensor, antigen 30 ug/ml
T1 construct: range 43-300; not shown: Avi tag as the name implies
T1 sequence (looked up): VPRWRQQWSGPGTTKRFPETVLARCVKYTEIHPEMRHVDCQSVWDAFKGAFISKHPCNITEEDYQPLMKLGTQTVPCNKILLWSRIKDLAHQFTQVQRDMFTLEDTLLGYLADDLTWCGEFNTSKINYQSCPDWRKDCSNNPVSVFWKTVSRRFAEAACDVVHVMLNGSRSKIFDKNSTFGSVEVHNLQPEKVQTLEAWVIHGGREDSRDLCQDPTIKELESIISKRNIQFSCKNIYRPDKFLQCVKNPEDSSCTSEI

[2] = target: T2, extracellular domain of the human CSF1R protein (hCSF1R_His) (Homo sapiens, UniProt P07333 20-512); experiment: as above
T2 construct: range 20-512; Molecular weight 57.4 kDa; made in CHO cells; also called hCSF1_His; not shown: C-terminal His and FLAG tags

[3] = target: T3, extracellular domain of the human PD-1 protein (hPD1ex-H6F) (Homo sapiens, UniProt Q15116 21-170); experiment: BLI Octet RED 384; antibody on ProA sensor, antigen in solution; 1:1 global fit
T3 construct: Molecular weight 20.6 kDa; made in CHO cells; also called hPDlex-H6F; not shown: C-terminal His and FLAG tags
Experimental: (§1) The experiments were carried out using a kinetic buffer solution (hereinafter referred to as 1×KB) having the following formulation: 4.3 mM Na₂HPO₄; 136.9 mM NaCl, 1.5 mM KH₂PO₄; 2.7 mM KCl; the volume fraction of the added Tween 20 was 0.1%; the mass fraction of the added BSA (bovine serum albumin) was 0.1%; pH 7.4. Before the measurement, the ProA sensors were regenerated with a solution of 50 mM glycine and hydrochloric acid, pH 1.8 (5 seconds in the regenerating solution, 5 seconds in 1×KB, three repetitions). In the case of the hPD1ex-H6F and hCSF1R_His antigens, the Protein A (ProA) biosensors (ForteBio) were immersed in a solution with antibodies at a concentration of 10 μg/ml for 60 seconds to immobilize same. The baseline was recorded in 1×KB for 60 seconds. The sensors loaded with the antibody were then immersed into wells containing a solution of the target antigen (analyte) in a kinetic buffer for 90 seconds. Measurements were performed for solutions with hPDlex-H6F analyte at concentrations of 2.50 μg/ml (121.4 nM), 1.25 μg/ml (60.7 nM), 0.625 μg/ml (30.35 nM). […] Then we detected complex dissociation in 1×KB for 210 s for hPDlex-H6F, 300 s for hCSF1R_His.
(§2) All measurements were carried out at 30° C., orbital mixing speed was 1,000 revolutions per minute.
(§3) To obtain numerical values of kinetic constants (kₒₙ is the on/association rate constant, kdis is the dissociation rate constant, KD is the equilibrium dissociation constant or affinity constant), the resulting sensograms were processed according to the 1:1 interaction model using Global Fit (selection of one set of kon, kdis, KD constants to analyze several sensograms of different concentrations) of the ForteBio Octet Data Analysis 9.0 software.

[4] = target: T2, extracellular domain of the human CSF1R …; experiment: as above
Experimental: as §1, §2, §3

T3 sequence (Q15116 21-170 limits assumed, form in doubt): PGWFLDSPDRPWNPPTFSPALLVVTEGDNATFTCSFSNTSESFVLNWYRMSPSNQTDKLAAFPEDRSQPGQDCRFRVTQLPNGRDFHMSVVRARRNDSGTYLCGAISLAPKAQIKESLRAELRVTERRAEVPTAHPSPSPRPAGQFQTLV
T2 sequence (P07333 20-512 limits assumed): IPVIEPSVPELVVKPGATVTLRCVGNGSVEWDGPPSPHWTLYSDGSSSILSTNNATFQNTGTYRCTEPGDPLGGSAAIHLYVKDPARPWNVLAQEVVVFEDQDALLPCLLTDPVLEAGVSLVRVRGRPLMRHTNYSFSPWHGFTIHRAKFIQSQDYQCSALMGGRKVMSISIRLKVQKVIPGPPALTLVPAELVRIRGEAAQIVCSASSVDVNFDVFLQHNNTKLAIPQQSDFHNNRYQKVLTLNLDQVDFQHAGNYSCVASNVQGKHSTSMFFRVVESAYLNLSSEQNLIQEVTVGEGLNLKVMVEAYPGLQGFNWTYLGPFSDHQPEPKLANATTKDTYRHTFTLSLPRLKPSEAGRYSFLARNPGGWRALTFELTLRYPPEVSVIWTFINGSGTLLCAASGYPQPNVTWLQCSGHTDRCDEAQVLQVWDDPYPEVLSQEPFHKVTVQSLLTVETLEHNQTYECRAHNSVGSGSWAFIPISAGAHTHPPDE

B1: 02-005, bivalent bispecific chimeric antibody that specifically binds to PD1 and CD20 (bispecific antibody, human IgG1, kappa, L234A L235A)
heavy 1: EVQLVESGGGLVQPGGSLRLSCAASGYTFTSYNMHWVRQAPGKGLEWVGAIYPGNGDTSYNQKFKGRFTISVDKSKNTLYLQMNSLRAEDTAVYYCARVVYYSNSYWYFDVWGQGTLVTVSSASTKGPSVFPLAPSSKSTSGGTAALGCLVKDYFPEPVTVSWNSGALTSGVHTFPAVLQSSGLYSLSSVVTVPSSSLGTQTYICNVNHKPSNTKVDKRVEPKSCDKTHTCPPCPAPEAAGGPSVFLFPPKPKDTLYITREPEVTCVVVDVSHEDPEVKFNWYVDGVEVHNAKTKPREEQYNSTYRVVSVLTVLHQDWLNGKEYKCKVSNKALPAPIEKTISKAKGQPREPQVCTLPPSRDELTKNQVSLSCAVKGFYPSDIAVEWESNGQPENNYKTTPPVLDSDGSFFLVSKLTVDKSRWQQGNVFSCSVMHEALHNHYTQKSLSLSPGK
light 1: DIQMTQSPSSLSASVGDRVTITCRASSSVSYMHWYQQKPGKAPKPLIYAPSNLASGVPSRFSGSGSGTDFTLTISSLQPEDFATYYCQQWSFNPPTFGQGTKVEIKRTVAAPSVFIFPPSDEQLKSGTASVVCLLNNFYPREAKVQWKVDNALQSGNSQESVTEQDSKDSTYSLSSTLTLSKADYEKHKVYACEVTHQGLSSPVTKSFNRGEC
heavy 2: not shown
light 2: QPVLTQPLSVSVALGQTARITCGGNNIGSKNVHWYQQKPGQAPVLVIYRDSNRPSGIPERFSGSNSGNTATLTISRAQAGDEADYYCQVWDSSTAVFGTGTKLTVLQQRQVKPEAWLSSGPSPGPGRLQLVCHVSGFYPKPVWVMWMRGEQEQQGTQLGDILPNANWTWYLRATLDVADGEAAGLSCRVKHSSLEGQDIILYWRGSC
notes: Produced in CHO cells
Q: Does B1 bind [1]?
A: no binding (tested: 854.7 nM)

Q: Does B1 bind [2]?
A: no binding (tested: 522.5 nM)

Q: And the Kd [3]?
A: 5690 pM

Q: What about the koff [3] of the same binder?
A: 0.00101 s⁻¹

Q: And the kon [3]?
A: 178000 M⁻¹ s⁻¹

B2: 02-008, bivalent bispecific chimeric antibody that specifically binds to CD20 and CSF1R (bispecific antibody, human IgG1, kappa, L234A L235A)
heavy 1: EVQLVESGGGLVQPGGSLRLSCAASGYTFTSYNMHWVRQAPGKGLEWVGAIYPGNGDTSYNQKFKGRFTISVDKSKNTLYLQMNSLRAEDTAVYYCARVVYYSNSYWYFDVWGQGTLVTVSSASTKGPSVFPLAPSSKSTSGGTAALGCLVKDYFPEPVTVSWNSGALTSGVHTFPAVLQSSGLYSLSSVVTVPSSSLGTQTYICNVNHKPSNTKVDKRVEPKSCDKTHTCPPCPAPEAAGGPSVFLFPPKPKDTLYITREPEVTCVVVDVSHEDPEVKFNWYVDGVEVHNAKTKPREEQYNSTYRVVSVLTVLHQDWLNGKEYKCKVSNKALPAPIEKTISKAKGQPREPQVCTLPPSRDELTKNQVSLSCAVKGFYPSDIAVEWESNGQPENNYKTTPPVLDSDGSFFLVSKLTVDKSRWQQGNVFSCSVMHEALHNHYTQKSLSLSPGK
light 1: DIQMTQSPSSLSASVGDRVTITCRASSSVSYMHWYQQKPGKAPKPLIYAPSNLASGVPSRFSGSGSGTDFTLTISSLQPEDFATYYCQQWSFNPPTFGQGTKVEIKRTVAAPSVFIFPPSDEQLKSGTASVVCLLNNFYPREAKVQWKVDNALQSGNSQESVTEQDSKDSTYSLSSTLTLSKADYEKHKVYACEVTHQGLSSPVTKSFNRGEC
heavy 2: not shown
light 2: QAGLTQPPSVSVAPGQTARITCGGNNIGSKSVHWYQQKPGQAPVLVVYGDSDRPSGIPERFSGSNSGNTATLTISRVEAGDEADYYCQVWDISSDHVVFGGGTQLTVLQRQVKPEAWLSSGPSPGPGRLQLVCHVSGFYPKPVWVMWMRGEQEQQGTQLGDILPNANWTWYLRATLDVADGEAAGLSCRVKHSSLEGQDIILYWRGSC
notes: Produced in CHO cells
Q: Does B2 bind [1]?
A: no binding (tested: 854.7 nM)

Q: And the Kd [4]?
A: 549 pM

Q: And the koff [4]?
A: 0.000236 s⁻¹

Q: What about the kon [4] of the same binder?
A: 429000 M⁻¹ s⁻¹

B3: 02-006, bivalent bispecific chimeric antibody that specifically binds to PD1 and CSF1R (bispecific antibody, human IgG1, kappa, L234A L235A)
heavy 1: QVQLVQSGGGLVQPGGSLRLSCAASGFTFSSYWMYWVRQVPGKGLEWVSAIDTGGGRTYYADSVKGRFAISRVNAKNTMYLQMNSLRAEDTAVYYCARDEGGGTGWGVLKDWPYGLDAWGQGTLVTVSSASTKGPSVFPLAPSSKSTSGGTAALGCLVKDYFPEPVTVSWNSGALTSGVHTFPAVLQSSGLYSLSSVVTVPSSSLGTQTYICNVNHKPSNTKVDKRVEPKSCDKTHTCPPCPAPEAAGGPSVFLFPPKPKDTLYITREPEVTCVVVDVSHEDPEVKFNWYVDGVEVHNAKTKPREEQYNSTYRVVSVLTVLHQDWLNGKEYKCKVSNKALPAPIEKTISKAKGQPREPQVCTLPPSRDELTKNQVSLSCAVKGFYPSDIAVEWESNGQPENNYKTTPPVLDSDGSFFLVSKLTVDKSRWQQGNVFSCSVMHEALHNHYTQKSLSLSPGK
light 1: QPVLTQPLSVSVALGQTARITCGGNNIGSKNVHWYQQKPGQAPVLVIYRDSNRPSGIPERFSGSNSGNTATLTISRAQAGDEADYYCQVWDSSTAVFGTGTKLTVLQRTVAAPSVFIFPPSDEQLKSGTASVVCLLNNFYPREAKVQWKVDNALQSGNSQESVTEQDSKDSTYSLSSTLTLSKADYEKHKVYACEVTHQGLSSPVTKSFNRGEC
heavy 2: not shown
light 2: QAGLTQPPSVSVAPGQTARITCGGNNIGSKSVHWYQQKPGQAPVLVVYGDSDRPSGIPERFSGSNSGNTATLTISRVEAGDEADYYCQVWDISSDHVVFGGGTQLTVLQRQVKPEAWLSSGPSPGPGRLQLVCHVSGFYPKPVWVMWMRGEQEQQGTQLGDILPNANWTWYLRATLDVADGEAAGLSCRVKHSSLEGQDIILYWRGSC
notes: Produced in CHO cells
Q: What does the source list for B3?
A: binding result [1]: no binding (tested: 854.7 nM); Kd [3]: 2510 pM; koff [3]: 0.000691 s⁻¹; kon [3]: 275000 M⁻¹ s⁻¹; Kd [4]: 797 pM; koff [4]: 0.000286 s⁻¹; kon [4]: 359000 M⁻¹ s⁻¹

B4: 02-009, bivalent bispecific chimeric antibody that specifically binds to CD20 and CSF1R (bispecific antibody, human IgG1, kappa, L234A L235A)
heavy 1: QVQLVESGGGLVRPGGSLRLSCAASEFTFDDYAMSWVRQAPGKGLEWVSAISWNGGSTNYADSVKGRFTISRDNAKNSLYLQMNSLRAEDTALYYCASTVEVAHRRLYKYLEVWGQGTLVTVSSASTKGPSVFPLAPSSKSTSGGTAALGCLVKDYFPEPVTVSWNSGALTSGVHTFPAVLQSSGLYSLSSVVTVPSSSLGTQTYICNVNHKPSNTKVDKRVEPKSCDKTHTCPPCPAPEAAGGPSVFLFPPKPKDTLYITREPEVTCVVVDVSHEDPEVKFNWYVDGVEVHNAKTKPREEQYNSTYRVVSVLTVLHQDWLNGKEYKCKVSNKALPAPIEKTISKAKGQPREPQVCTLPPSRDELTKNQVSLSCAVKGFYPSDIAVEWESNGQPENNYKTTPPVLDSDGSFFLVSKLTVDKSRWQQGNVFSCSVMHEALHNHYTQKSLSLSPGK
light 1: QAGLTQPPSVSVAPGQTARITCGGNNIGSKSVHWYQQKPGQAPVLVVYGDSDRPSGIPERFSGSNSGNTATLTISRVEAGDEADYYCQVWDISSDHVVFGGGTQLTVLRTVAAPSVFIFPPSDEQLKSGTASVVCLLNNFYPREAKVQWKVDNALQSGNSQESVTEQDSKDSTYSLSSTLTLSKADYEKHKVYACEVTHQGLSSPVTKSFNRGEC
heavy 2: not shown
light 2: DIQMTQSPSSLSASVGDRVTITCRASSSVSYMHWYQQKPGKAPKPLIYAPSNLASGVPSRFSGSGSGTDFTLTISSLQPEDFATYYCQQWSFNPPTFGQGTKVEIKQRQVKPEAWLSSGPSPGPGRLQLVCHVSGFYPKPVWVMWMRGEQEQQGTQLGDILPNANWTWYLRATLDVADGEAAGLSCRVKHSSLEGQDIILYWRGSC
notes: Produced in CHO cells
Q: For B4, which Kd [4] is on record?
A: 420 pM

Q: What about the koff [4] of the same binder?
A: 0.00021 s⁻¹

Q: And the kon [4]?
A: 500000 M⁻¹ s⁻¹
